{
  "source": "paper PMC8209680",
  "about": "(Cell reports, 2021)",
  "target": "Mtb ClpB M-domain motif 2 protein (residues 467–518) (Mycobacterium tuberculosis, UniProt P9WPD1 467-518)",
  "sequence (P9WPD1 467-518)": "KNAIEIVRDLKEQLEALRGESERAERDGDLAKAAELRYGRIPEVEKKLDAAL",
  "assay": "ITC",
  "data": [
    {"binder": "Mtb DnaK NBD (residues 1–359) (domain or fragment) MARAVGIDLGTTNSVVSVLEGGDPVVVANSEGSRTTPSIVAFARNGEVLVGQPAKNQAVTNVDRTVRSVKRHMGSDWSIEIDGKKYTAPEISARILMKLKRDAEAYLGEDITDAVITTPAYFNDAQRQATKDAGQIAGLNVLRIVNEPTAAALAYGLDKGEKEQRILVFDLGGGTFDVSLLEIGEGVVEVRATSGDNHLGGDDWDQRVVDWLVDKFKGTSGIDLTKDKMAMQRLREAAEKAKIELSSSQSTSINLPYITVDADKNPLFLDEQLTRAEFQRITQDLLDRTRKPFQSVIADTGISVSEIDHVVLVGGSTRMPAVTDLVKELTGGKEPNKGVNPDEVVAVGAALQAGVLKGE", "values": [
      {"measurement": "stoichiometry N", "result": "~1"}
    ]}
  ]
}
